Consider 50 sequences from the domain aggregation screens of Martell et al. (2025).

This series is described as follows: soluble fraction after stress (log2 fold change); higher = more stays soluble; pooled small domains, quantitative proteomics. Particulars: stress: 50 degC. The gist of the method:
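The stress applied to every library was 50°C. These custom libraries of small protein domains were pooled and measured at high throughput with quantitative proteomics as the read-out. Aggregation propensity is expressed as the base-two logarithm of the fold change in how much of each protein remains soluble. The higher the value, the more of that protein stays in solution.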
With “HMITPAGVPPALLPVFDQFTLPDGTLRRGAVAAALRALYGPDAPQSGKRYQMEYDRVMAWHSQYFTSLH”, the “soluble fraction (log2)” value was -0.34.
As for “HMITPKQTAETLGIATSTLRRWASEFEPFLSLRTGVKRTYTTDDITTLKRVKDLFAQGLKTEQVREAL”, the “soluble fraction (log2)” value was -0.161.
“HMITPNQAAVTLKVSTSTLRRWSSDFEPFLSPRKGVKRLYTIEDIATLKRIQGLYKQGMNTAQVQA”: the “soluble fraction (log2)” value was -2.1.
As for “HMITQQEFQQKLEALLSRAEAESFHIKKEEAESFFSGDELTGEQMKLVFDYLLSKKIIVEGYLK”, the “soluble fraction (log2)” value is -0.0863.
“HMITTEEVLNRIRKKVDHPATIRELQKALSIADDDRHRFRRRIRTLVASGALVRIRGNRYGLPSK”: the “soluble fraction (log2)” value is -0.275.
For the sequence “HMITTWAGKATTDVYGRVDANPKADAVLVIKTGWTVQVVGSKTAPDGGTWYKLIYNGKTMYANSKFIVK”, the “soluble fraction (log2)” value is -1.16.
For “HMITVEAPMPGKVLSVNVKAGDKVEAGDVLLILEAMKMQNEIMAPEDGTVSDVRVSAGDTVATGDVMVV”, the “soluble fraction (log2)” value was found to be 0.0409.
Regarding “HMIVIMAKESSPAELEGVKNRIESHPGLRPQVFDGVERIVVGVLGSIPPDLKDEIELLPGVIEVVPISK”, the “soluble fraction (log2)” value was -0.0582.
Next, “HMIVVLKHGVTEQQMRNLIAWFKDQGVDVHVSRGIYQTVLGLVGDTSDIDVDLLRMLDIVDAVKRIT”: -1.76; “HMIVVMAADSSREDLDLVQGRIEARGLRAQISQGVERIVIGVLGSLPPDLKDEMELLPGVREVLVIS”: -0.405; “HMIYGNGVTDLKDLANGATIIIPADDSNETRALFLLQQEGLIKLPDDADAAKGVSTLDIVDGGGWVTSM”: 0.0431.
Next, “HMIYKLIADRLKNRINSDEFEVGDALPSEKALAGELEVSVMTIRKALTLLESEKLIVKRHGSGSYVARKSN”: -0.429; “HMIYRTTSVPIDNISTQKFNLQEGWIEMNKNEVEDFIRQKNLELVVTDSNVMLDKFALNGDPNKFKVFKY”: -0.094; “HMKADTSPEAQKKIIAAFEPYSVNKDQIEKLIQRRIDSITPAQVIRLRKILASLKDGMSSPEDWFE”: 0.0361.
Next, “HMKAERLLALLTILLSGKRVSARWLSEELEVSERTVYRDVEALSEAGFPVYATTGRDGGFSLIDGF”: -2.08; “HMKAKPTLLTPYEERLKGWLETDSRRPKRDRRTGLALFAKLQQEGFTGSYTRVTEYIRRWRDSGG”: -3.01.
In the case of “HMKALPSAEDVALARESGRVLSTVLQTRAETQQIDFHDDKGAVRSVTLPTTALRLLLDVLTEIGQGNAV”, the “soluble fraction (log2)” value was -0.23.
As for “HMKALRNQDVVVGKPLAMAVYDQHGVLLLGRGHVVISESQRQQLLERGFSIDAEQLGRLRAAIEATQRV”, the “soluble fraction (log2)” value is -0.378.
For “HMKALYHQLVDLLKKRMESGMIPHDKLPSERELTAQYGVSRTTVRLALQELENTGYIYRRHGKGTFVSDI”, the “soluble fraction (log2)” value was -2.27.
As to “HMKANIGDQVFTQLKDQIINGEWRPGDRIPSEAQLIQLFGVSRGTVRQAVQKLAGEGLIVTRHGEGSFVQG”, the “soluble fraction (log2)” value amounted to 0.096.
Next, “HMKAQLQHIIGSNIKLARNTQGYTQEGLAERAEISVEHLKQVERGKKMLSVESLVNVANALQVSVDSLV”: 0.0587; “HMKAQVKSVLDDIPGIGQTRRKALMRYFKSLEKIREASVEELKEADAMNERAAQSVYAFFHK”: -0.471.
Consider “HMKAQVKSVLDEIPGVGPTRRKALMKHFTSIEEIKQAEFETLLEAEGMNRAAAQSVYDFFHN”, for which the “soluble fraction (log2)” value is -0.138.
Consider “HMKDESQLVGAEGKAVTPLRPTGVALIGEKRLDVLTEGEFIPRNSDIIVSRVEGNKIIVKLKN”, for which the “soluble fraction (log2)” value was determined as 0.177.
With “HMKDHLRFEILSFAGDLRNGVVKTRQEFETIFAFYDKYEEIITALKVHNGYVDSEFDFIKEKFKELKSK”, the “soluble fraction (log2)” value is -1.92.
Consider “HMKDLQAISERMEEIISFAKANDNEISLFIVQDIIKNKKTGIDEDLLNMALYQIKEQGIKVLPA”, for which the “soluble fraction (log2)” value is -0.0793.
Consider “HMKDSIQIPNVVGMTIKDAQSQYGKSFSIIEQNRTESTKPAGTILEQTPAGGDTVSKRDNIIIRVVVSLG”, for which the “soluble fraction (log2)” value turned out to be 0.132.
Next, “HMKDSKSALQEYALERKMGLPVYEVVDRSGPDHAPQFVIAVSLGEWRLEAKGASKRQAEQQAASLMLEEI”: -0.353; “HMKDYTIDDIINSKVEHPLGGYQSRFKVGEYEVSVVGGRQTNHGDFIHTFELAIFDKNNNFLRNLTPVTID”: -0.0394.
Consider “HMKEATTSPLDGIPGIGSKRKKALLSHFGSARSVARADIPDLMRVDGISRQVAETIYGWFHN”, for which the “soluble fraction (log2)” value is -0.179.
With “HMKEDFPLLEQLRYTGEGADVTGTAEKMESIQALRSAADSGGFRATLGDIQQIPGGGLRFTLSLRGSR”, the “soluble fraction (log2)” value was 0.0335.
On to “HMKEDNPIVLINLQAKEGEWVFKGTGLPYVGKYHQHKNGEYMIGIGVLNLNHELKPDEIIIPNPNK”, for which the “soluble fraction (log2)” value is -0.109.
For “HMKEEDYEVFMRLINVRGIGPKSALNILGVISGQEMIQAIENDDIKRLKSLPGIGAKTAGQIVLDLKGKFV”, the “soluble fraction (log2)” value was -0.649.
Turning to “HMKEFIPPVLDDVLKFFSGSLLPDWENQGRLFFSHYNSQGWRKGTGVQVTDWDSLANKWILDEKIKRDARS”, the “soluble fraction (log2)” value was -0.263.
On to “HMKEGTIPPVVNRTLSDAEFVLKSYGYELGRVSEQHSDMPKDIVIKQSPEAGTVADPGTRVDVVVSIGKA”, for which the “soluble fraction (log2)” value was found to be 0.404.
With “HMKEHDTLALRLTAILRKLNDGEKLVPRELAEEFNVGIRTIQRDLTERLSFLDLEKTNGAYSLPTRNL”, the “soluble fraction (log2)” value is -0.428.
As for “HMKEIIFRGIGEFILDYKSLVIEFLNKNNYANLSMDAPVDEVNKAVANNMLNEDFVTELLLFQRRVE”, the “soluble fraction (log2)” value is -1.2.
Next, “HMKEILLITGKGLHSGQDDVYKSAQLSKLRYSVPEFIKSNLEISQLILSVETPLQKDGGDGALLIK”: 0.13; “HMKEILVGVEPLSKKQIIIKKGIKGRSDYIIFEKKNYGLPENLKPEEVSIEIALKIIDEKKKRKA”: -1.23.
Take “HMKEIPTKKGDMLEIYEANGKYILKYPTFNITMPEVVKEIPKEAVDSYLAGKHDGEELINYANFGFWKS”: the “soluble fraction (log2)” value was -0.185.
For the sequence “HMKEKDAYTSEILDTLKNAKLLVVEGTVYPLLTRLKNDGLLNYRWEESTSGPPRKYYGLTDEG”, the “soluble fraction (log2)” value is -0.445.
With “HMKEKIIKEPYDLFTTDKIGQALEVQALLARQGIKVQRRVDGTKSTLFLENYTQSEKDQALLAVVRSGIV”, the “soluble fraction (log2)” value turned out to be 0.161.
As for “HMKEKPLWAIRITELREEHYFTQTDVSKALGIAQTTYAGYETGRHEPDFETMIKIADIYKVSLDYLIGR”, the “soluble fraction (log2)” value is -1.27.
With “HMKELFETLPDVLDAKLLASALSISKAGAYQLLNRPDFPTLQVGGWKLVTKQKLALWMEQHTN”, the “soluble fraction (log2)” value is -3.21.
In the case of “HMKELFGQRLREQRLKQNLTLEQLAEKANLSPNYVGMVERGLKEPGLATIVKLLNGLNVSADTLL”, the “soluble fraction (log2)” value is -0.036.
Consider “HMKELLTKQQREEILETVKTKTPKDFGYTAEHWTTGFLGKWIEEHYEVEYKSKTSLYLVFKKASFTYHKPG”, for which the “soluble fraction (log2)” value is 0.228.
As for “HMKELTARQIEILDFITNYEWRHGYWPSIRNIQVQFSYKSTNAVMGHLRALERKGAIERIPGQARTFRIH”, the “soluble fraction (log2)” value is -2.97.
On to “HMKEPFETMPDVMDAKQIAEALQISKAGAYNLLNSPDFPTLRIGGRKLVMKNELVEWLKSHTNRK”, for which the “soluble fraction (log2)” value is 0.274.
For the sequence “HMKEPPTLEEIKNYFASKLSTELESEKFFNYFESNGWLVGGKTPMKNWQSAANNWLINMSKFN”, the “soluble fraction (log2)” value is -0.47.
With “HMKEPQLGPVRKWSDQTGNFGIEAQFVKREGDNILLKRADQRTISIPLEKLSDADQEHLKQEEQKQAME”, the “soluble fraction (log2)” value is -0.138.
